Key:
TGF-β = test: Serum cytokines in B16F10 tumor bearing mice injected with cPG peptide (ELISA); type: in vivo, C57BL/6 mice; details: injected 3× per week; serum after 14 days; FIG. 26A
Experimental: FIG. 26A-FIG. 26C is a series of bar charts showing that the injection of a peptide (cPG) containing the HU177 collagen epitope induces expression of the immune suppressive growth factor TGF-β in mouse circulation. C57BL/6 mice were injected subcutaneously with B16F10 melanoma cells (0.5×10^6) and tumors were allowed to form. Mice were next injected 3× per week with […] per mouse of cPG peptide. Serum was […] after 14 days. Serum was diluted in assay buffer and the relative levels of cytokines were examined by ELISA. FIG. 26A is a bar graph wherein data bars represent relative levels of TGF-β as determined by ELISA from control (DMSO) treated mouse and two different cPG peptide treated mice. FIG. 26B is a bar graph wherein data bars represent relative levels of IL-4 as determined by ELISA from control (DMSO) treated mouse and two different cPG peptide treated mice. FIG. 26C is a bar graph wherein data bars represent relative levels of IL-1β as determined by ELISA from control (DMSO) treated mouse and two different cPG peptide treated mice.
C57BL/6 mice were injected subcutaneously with B16F10 melanoma cells (0.5×10^6) and tumors were allowed to form. […] FIG. 26A is a bar graph wherein data bars represent relative levels of TGF-β as determined by ELISA from control (DMSO) treated mouse and two different cPG peptide treated mice. […]

integrin αvβ3 [1] = target: T1, integrin αvβ3 (Homo sapiens, UniProt P05106+P06756); test: Solid-phase integrin binding to synthetic HU177 epitope (PGF peptide); details: peptide immobilized 100 ug/ml; FIG. 23F
T1 construct: purchased R&D Systems (Minneapolis, Minn.)
T1 sequence (P06756 31-992 limits assumed): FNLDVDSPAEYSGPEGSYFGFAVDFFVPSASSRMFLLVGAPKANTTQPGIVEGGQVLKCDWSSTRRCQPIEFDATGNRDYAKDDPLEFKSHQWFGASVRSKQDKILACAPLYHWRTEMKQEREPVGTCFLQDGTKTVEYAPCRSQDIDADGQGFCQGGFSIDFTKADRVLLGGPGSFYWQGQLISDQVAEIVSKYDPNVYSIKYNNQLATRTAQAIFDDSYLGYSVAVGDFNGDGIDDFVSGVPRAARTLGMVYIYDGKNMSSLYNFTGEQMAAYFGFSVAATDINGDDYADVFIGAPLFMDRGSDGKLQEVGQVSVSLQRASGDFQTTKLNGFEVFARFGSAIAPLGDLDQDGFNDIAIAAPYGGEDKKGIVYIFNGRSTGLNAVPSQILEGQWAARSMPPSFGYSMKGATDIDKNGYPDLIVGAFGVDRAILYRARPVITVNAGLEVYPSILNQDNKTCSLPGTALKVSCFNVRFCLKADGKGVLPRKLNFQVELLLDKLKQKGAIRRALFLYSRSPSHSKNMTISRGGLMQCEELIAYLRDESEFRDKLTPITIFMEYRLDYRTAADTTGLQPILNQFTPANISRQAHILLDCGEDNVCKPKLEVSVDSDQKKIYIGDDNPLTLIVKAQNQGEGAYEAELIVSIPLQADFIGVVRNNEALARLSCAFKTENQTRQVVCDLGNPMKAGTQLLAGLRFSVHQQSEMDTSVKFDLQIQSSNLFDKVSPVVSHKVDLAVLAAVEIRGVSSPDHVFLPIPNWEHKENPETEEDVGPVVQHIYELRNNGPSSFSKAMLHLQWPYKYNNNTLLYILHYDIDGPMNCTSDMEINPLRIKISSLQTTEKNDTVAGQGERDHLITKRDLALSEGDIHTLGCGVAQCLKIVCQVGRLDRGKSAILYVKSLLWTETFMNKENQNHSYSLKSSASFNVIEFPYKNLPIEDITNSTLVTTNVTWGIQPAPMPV
T1 sequence (P05106 27-718 limits assumed): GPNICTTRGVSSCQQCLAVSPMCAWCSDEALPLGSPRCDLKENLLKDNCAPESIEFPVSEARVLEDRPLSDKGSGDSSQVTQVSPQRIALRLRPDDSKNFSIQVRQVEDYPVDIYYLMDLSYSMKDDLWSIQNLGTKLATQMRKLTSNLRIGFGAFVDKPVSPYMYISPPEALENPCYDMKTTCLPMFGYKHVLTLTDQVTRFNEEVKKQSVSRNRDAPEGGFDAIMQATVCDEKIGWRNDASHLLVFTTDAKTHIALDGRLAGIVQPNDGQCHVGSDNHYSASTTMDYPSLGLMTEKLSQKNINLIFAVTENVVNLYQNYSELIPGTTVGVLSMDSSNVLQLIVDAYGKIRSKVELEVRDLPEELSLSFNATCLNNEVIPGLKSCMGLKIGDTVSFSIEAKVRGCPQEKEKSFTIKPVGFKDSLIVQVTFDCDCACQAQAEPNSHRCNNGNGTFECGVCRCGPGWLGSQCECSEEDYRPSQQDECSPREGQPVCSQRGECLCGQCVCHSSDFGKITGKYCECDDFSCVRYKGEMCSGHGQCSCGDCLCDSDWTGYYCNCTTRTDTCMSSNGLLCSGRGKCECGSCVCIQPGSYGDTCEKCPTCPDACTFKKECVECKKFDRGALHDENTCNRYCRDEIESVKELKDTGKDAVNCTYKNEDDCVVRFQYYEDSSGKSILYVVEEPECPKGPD
Experimental: (§1) Plates were coated with 25 μg/ml of native or denatured (boiled 15 minutes) collagen. Collagen epitope peptide PGF and Cont-peptides were immobilized at 100 ug/ml. Integrins (0-2.0 μg/ml) were diluted in binding buffer containing 20 mM Tris, 15 mM NaCl, 1 mM MgCl2, 0.2 mM MnCl2, 0.5% BSA pH 7.4 as described (13). Integrins were allowed to bind for 1 hr and plates washed and incubated with anti-integrin antibodies (1:100 dilution) for 1 hr. Plates were washed and incubated with HRP-labeled secondary antibodies (1:5000 dilution). In a second assay, integrins (0.5 μg/ml) were coated in binding buffer and plates were washed, blocked as before and denatured (boiled 15 minutes) collagen was added (0-10.0 μg/ml). Denatured collagen was detected with anti-collagen antibody (1:1000). For integrin blocking ELISAs, wells were coated with denatured collagen and pre-treated (0.1 μg/ml) with anti-HU177 or control antibody. Following washing, wells were incubated with integrins (2.0 μg/ml) and binding was detected as described. Assays were carried out at least 3 times.

integrin α2β1 [2] = target: T2, integrin α2β1 (Homo sapiens, UniProt P05556+P17301); test: as above; details: peptide immobilized 100 ug/ml; FIG. 23F
T2 construct: purchased R&D Systems
T2 sequence (P17301 30-1132 limits assumed): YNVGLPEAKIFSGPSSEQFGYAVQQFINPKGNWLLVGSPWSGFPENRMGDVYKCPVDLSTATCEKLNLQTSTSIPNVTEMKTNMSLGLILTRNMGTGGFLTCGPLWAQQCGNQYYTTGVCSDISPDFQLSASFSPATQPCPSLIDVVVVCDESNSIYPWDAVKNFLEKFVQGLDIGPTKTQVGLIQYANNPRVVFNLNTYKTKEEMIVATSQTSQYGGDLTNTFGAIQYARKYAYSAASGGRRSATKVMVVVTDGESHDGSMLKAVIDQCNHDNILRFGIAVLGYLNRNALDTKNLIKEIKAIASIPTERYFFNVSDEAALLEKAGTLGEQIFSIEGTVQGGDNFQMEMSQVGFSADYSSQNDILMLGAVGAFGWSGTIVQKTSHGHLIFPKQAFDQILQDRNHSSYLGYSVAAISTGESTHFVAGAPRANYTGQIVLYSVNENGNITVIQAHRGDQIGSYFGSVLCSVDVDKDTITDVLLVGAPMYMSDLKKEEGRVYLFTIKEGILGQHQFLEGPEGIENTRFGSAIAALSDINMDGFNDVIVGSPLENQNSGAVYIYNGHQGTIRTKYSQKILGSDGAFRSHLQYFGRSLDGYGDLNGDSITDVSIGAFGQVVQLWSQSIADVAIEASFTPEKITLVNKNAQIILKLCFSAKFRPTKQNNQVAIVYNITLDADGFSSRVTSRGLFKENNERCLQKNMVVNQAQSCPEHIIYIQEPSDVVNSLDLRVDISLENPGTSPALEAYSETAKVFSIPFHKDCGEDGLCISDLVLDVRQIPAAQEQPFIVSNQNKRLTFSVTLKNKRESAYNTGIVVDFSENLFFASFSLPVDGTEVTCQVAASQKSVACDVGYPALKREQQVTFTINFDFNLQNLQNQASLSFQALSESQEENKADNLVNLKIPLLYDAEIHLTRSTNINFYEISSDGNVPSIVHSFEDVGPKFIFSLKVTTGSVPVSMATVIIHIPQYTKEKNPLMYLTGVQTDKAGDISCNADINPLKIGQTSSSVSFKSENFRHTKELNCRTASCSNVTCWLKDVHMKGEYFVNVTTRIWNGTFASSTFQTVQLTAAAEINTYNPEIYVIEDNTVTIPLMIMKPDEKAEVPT
T2 sequence (P05556 21-728 limits assumed): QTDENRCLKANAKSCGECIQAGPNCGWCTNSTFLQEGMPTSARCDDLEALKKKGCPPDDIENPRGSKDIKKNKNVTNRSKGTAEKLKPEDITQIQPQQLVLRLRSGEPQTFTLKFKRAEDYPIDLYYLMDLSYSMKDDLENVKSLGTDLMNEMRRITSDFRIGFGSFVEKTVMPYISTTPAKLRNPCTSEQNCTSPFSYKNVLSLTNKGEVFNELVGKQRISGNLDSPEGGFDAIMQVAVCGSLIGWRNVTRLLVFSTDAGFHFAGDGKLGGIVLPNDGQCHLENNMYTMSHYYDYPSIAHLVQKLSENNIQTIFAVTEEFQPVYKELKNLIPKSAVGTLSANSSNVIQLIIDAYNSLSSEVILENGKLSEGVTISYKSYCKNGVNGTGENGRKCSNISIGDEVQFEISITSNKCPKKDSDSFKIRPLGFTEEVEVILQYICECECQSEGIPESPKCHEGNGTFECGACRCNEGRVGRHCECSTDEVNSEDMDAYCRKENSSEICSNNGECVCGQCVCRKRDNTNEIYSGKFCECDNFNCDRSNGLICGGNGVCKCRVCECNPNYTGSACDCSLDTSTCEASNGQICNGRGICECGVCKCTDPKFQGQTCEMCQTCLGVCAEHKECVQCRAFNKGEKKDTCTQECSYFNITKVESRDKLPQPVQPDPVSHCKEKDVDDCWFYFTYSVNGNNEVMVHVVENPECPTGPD
Experimental: as §1

integrin α10β1 [3] = target: T3, integrin α10β1 (Homo sapiens, UniProt O75578+P05556); test: as above; details: peptide immobilized 100 ug/ml; FIG. 23F
T3 construct: purchased R&D Systems
T3 sequence (O75578 23-1122 limits assumed): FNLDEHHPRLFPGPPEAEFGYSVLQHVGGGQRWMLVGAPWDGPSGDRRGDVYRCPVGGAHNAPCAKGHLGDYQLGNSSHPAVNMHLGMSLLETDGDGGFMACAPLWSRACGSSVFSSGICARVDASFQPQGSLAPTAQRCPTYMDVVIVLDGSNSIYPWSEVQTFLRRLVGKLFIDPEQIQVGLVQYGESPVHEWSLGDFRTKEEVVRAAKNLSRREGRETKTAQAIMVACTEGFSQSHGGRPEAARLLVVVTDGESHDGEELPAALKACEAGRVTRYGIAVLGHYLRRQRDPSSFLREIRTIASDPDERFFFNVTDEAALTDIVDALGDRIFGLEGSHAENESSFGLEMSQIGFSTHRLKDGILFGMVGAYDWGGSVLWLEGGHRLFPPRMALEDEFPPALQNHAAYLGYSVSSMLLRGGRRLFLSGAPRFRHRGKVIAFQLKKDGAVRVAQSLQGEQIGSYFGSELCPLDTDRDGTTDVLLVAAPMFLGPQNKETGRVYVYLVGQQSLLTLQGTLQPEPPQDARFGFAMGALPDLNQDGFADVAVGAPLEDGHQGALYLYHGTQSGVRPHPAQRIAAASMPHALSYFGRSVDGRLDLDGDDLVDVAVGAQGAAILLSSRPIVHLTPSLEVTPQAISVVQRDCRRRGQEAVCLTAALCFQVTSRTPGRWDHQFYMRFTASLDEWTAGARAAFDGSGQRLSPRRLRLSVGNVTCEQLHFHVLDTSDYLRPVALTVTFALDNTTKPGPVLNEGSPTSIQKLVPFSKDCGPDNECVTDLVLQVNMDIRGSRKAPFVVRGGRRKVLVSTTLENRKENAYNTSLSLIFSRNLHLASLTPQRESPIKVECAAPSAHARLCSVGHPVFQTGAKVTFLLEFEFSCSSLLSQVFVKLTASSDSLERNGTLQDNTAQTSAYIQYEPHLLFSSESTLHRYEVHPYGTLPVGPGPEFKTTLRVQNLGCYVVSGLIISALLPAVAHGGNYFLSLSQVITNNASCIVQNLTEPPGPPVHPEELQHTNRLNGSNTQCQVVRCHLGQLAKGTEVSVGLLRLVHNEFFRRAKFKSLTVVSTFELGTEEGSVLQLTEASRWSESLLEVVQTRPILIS
T3 sequence (P05556 21-728 limits assumed): as the sequence (P05556 21-728 limits assumed) above
Experimental: as §1

integrin α10β1 [4] = target: T3, integrin α10β1; test: Solid-phase integrin binding to denatured collagen
Experimental: as §1

PDL-1 [5] = test: PDL-1 protein in M21 melanoma cells on immobilized XL313 epitope (Western blot); type: cell-based, human; details: 15 minute incubation; vs uncoated wells; FIG. 15
Experimental: Integrin αvβ3 expressing melanoma cells (M21) were seeded on control uncoated wells or wells immobilized with the XL313 cryptic collagen epitope (RGDKGE (SEQ ID NO: 1)). Following a 15 minute incubation cell lysates were prepared. The relative levels of PDL-1 or loading control β-actin were assessed by Western blot.
Integrin αvβ3 expressing melanoma cells (M21) were seeded onto control uncoated wells or wells immobilized with the XL313 cryptic collagen epitope (RGDKGE (SEQ ID NO: 1)) (FIG. 15). Following an incubation period, cell lysates were prepared and relative levels of PDL-1 were assessed.

PDL-1 [6] = test: PDL-1 protein in cells attached to denatured collagen-IV (Western blot); type: cell-based; details: M21, CCL-49, HUVEC; vs native collagen-IV; FIG. 14
Experimental: FIG. 14A and FIG. 14B are blots of integrin αvβ3 expressing melanoma cells (M21 and […]) and FIG. 14C is a blot depicting that endothelial cells (HUVEC) were allowed to attach to well coated with either a non-αvβ3 binding ligand (native collagen-IV) or an αvβ3 binding ligand (denatured collagen-IV). Whole cell lysates were prepared and the relative levels of PDL-1 or loading control β-actin were assessed by Western blot.
Integrin αvβ3 expressing melanoma cells M21 (FIG. 14A) and CCL-49 (FIG. 14B) and endothelial cells (HUVEC) (FIG. 14C) were attached to wells coated with either a non-αvβ3 binding ligand (native collagen-IV) or an αvβ3 binding ligand (denatured collagen-IV). Whole cell lysates were prepared and the relative levels of PDL-1 or β-actin loading control were assessed.

fibroblasts [7] = test: Cell adhesion on native or denatured collagen; type: cell-based, human; details: FIG. 20B
Experimental: (§2) The wells of non-tissue culture forty-eight well cluster plates were coated for 12 hrs at 4° C. with 5 μg/ml of native or denatured (boiled 15 minutes) collagen prepared as described above. SKOV-3 and fibroblasts were suspended in adhesion buffer containing RPMI 1640, 1 mM MgCl2, 0.2 mM MnCl2 and 0.5% BSA (13) and 1×10^5 cells were added in the presence or absence of anti-HU177 or control antibodies (100 μg/ml). Cells were allowed to attach for 25 minutes. Non-attached cells were removed by washing and attached cells stained with crystal violet as described (13). Wells were washed and the cell-associated crystal violet was eluted with 100 ul per well of 10% acetic acid. Cell adhesion was quantified by measuring the optical density of the eluted crystal violet as described (15). Assays were completed at least 3×.

SKOV-3 cells [8] = test: Cell adhesion on native or denatured collagen; type: cell-based, human; details: FIG. 20A
Experimental: as §2

integrin αvβ3 [9] = target: T1, integrin αvβ3; test: Solid-phase integrin binding to denatured collagen; details: FIG. 23A
Experimental: as §1

integrin α1β1 = target: T4, integrin α1β1 (Homo sapiens, UniProt P05556+P56199); test: Solid-phase integrin binding to denatured collagen; details: FIG. 23A
T4 construct: purchased R&D Systems (Minneapolis, Minn.)
Experimental: as §1

integrin α2β1 [10] = target: T2, integrin α2β1; test: Solid-phase integrin binding to denatured collagen; details: FIG. 23A
Experimental: as §1

fibroblasts [11] = test: Transwell cell migration on native or denatured collagen; type: cell-based, human; details: FIG. 20D
Experimental: (§3) Transwell membranes (8.0 um pore size) were coated with 5 μg/ml of native or denatured collagen for 12 hrs at […] as described previously (13). Migration buffer containing RPMI 1640, 1 mM MgCl2, 0.2 mM MnCl2 and 0.5% BSA in the presence or absence of 5× concentrated serum free SKOV-3 CM or 20 ng/ml FGF-2 was placed in the lower chambers. SKOV-3 or fibroblasts (1×105) were resuspended in migration buffer containing RPMI 1640, 1 mM MgCl2, 0.2 mM MnCl2 and 0.5% BSA in the presence or absence of antibodies directed to the HU177 epitope, or α10β1, (10 μg/ml) or 100 uM of the MEK inhibitor ([…]). Cells were added to the top chamber and allowed to migrate from 2 to 4 hrs. Cells remaining on the top of the membranes were removed and cells that had migrated to the underside of the membrane were quantified by direct cell counts of crystal violet stained cells or by measuring the optical density of eluted cell-associated crystal violet dye as previously described (15). Assays were completed at least 3×.

SKOV-3 cells [12] = test: as above; type: cell-based, human; details: FIG. 20C
Experimental: as §3

## CPGFPGFC [PGF peptide]
TGF-β
  expression of TGF-β in mouse serum: induce the expression
Integrin αvβ3 [1]
  direct binding of αvβ3 to the synthetic HU177 epitope: failed to bind
Integrin α2β1 [2]
  direct binding of α2β1 to the synthetic HU177 epitope: bound
Integrin α10β1 [3]
  binding of α10β1 to the synthetic HU177 epitope, relative to α2β1: 4 fold
Integrin α10β1 [4]; soluble peptide, FIG. 23G
  competition of binding of α10β1 to denatured collagen: approximately 60%

## RGDKGE (immobilized on wells) [XL313 epitope]
PDL-1 [5]
  levels of PDL-1 protein in M21 melanoma cells following binding: enhanced levels of PDL-1 protein

## denatured collagen-IV: αvβ3 binding ECM ligand coated on wells
PDL-1 [6]
  levels of PDL-1 protein in melanoma and endothelial cells following binding: enhanced levels of PDL-1 protein

## denatured collagen: collagen type-I denatured by boiling the solution for 15 minutes
Fibroblasts [7]
  enhancement of fibroblast adhesion as compared to native collagen: 29%
SKOV-3 cells [8]
  enhancement of SKOV-3 adhesion as compared to native collagen: 38%
Integrin αvβ3 [9]
  binding of integrin αvβ3 to denatured collagen: dose dependently bound
Integrin α1β1
  binding of integrin α1β1 to denatured collagen: minimal interactions
Integrin α2β1 [10]
  binding of integrin α2β1 to denatured collagen: dose dependently bound
Integrin α10β1 [4]; FIG. 23A, 23B
  binding of denatured collagen and integrin α10β1: dose dependently bound
Fibroblasts [11]
  enhancement of fibroblast migration as compared to native collagen: 19%
SKOV-3 cells [12]
  enhancement of SKOV-3 migration as compared to native collagen: 34%
